# In article PMC5861054, “Crystal structure of an intramembranal phosphatase central to bacterial cell-wall peptidoglycan biosynthesis and lipid recycling” (Nature Communications, 2018):
# B1: Undecaprenyl pyrophosphate phosphatase (UppP) from Escherichia coli (enzyme, Escherichia coli K-12, UniProt P60932 1-273, looked up)
# chain: MSDMHSLLIAAILGVVEGLTEFLPVSSTGHMIIVGHLLGFEGDTAKTFEVVIQLGSILAVVVMFWRRLFGLIGIHFGRPLQHEGESKGRLTLIHILLGMIPAVVLGLLFHDTIKSLFNPINVMYALVVGGLLLIAAECLKPKEPRAPGLDDMTYRQAFMIGCFQCLALWPGFSRSGATISGGMLMGVSRYAASEFSFLLAVPMMMGATALDLYKSWGFLTSGDIPMFAVGFITAFVVALIAIKTFLQLIKRISFIPFAIYRFIVAAAVYVVFF
# notes: Undecaprenyl pyrophosphate phosphatase (UppP, BacA), Escherichia coli K-12 (ATCC 10798), full length, residues 1-273; Integral membrane protein, in DDM detergent (SEC, cross-linking) or monoolein lipid cubic/sponge phase (crystals); also called EcUppP; BacA; source: E. coli C41, solubilized from membranes in DDM, purified (Ni-NTA, thrombin cleavage, gel filtration); not shown: His6, N-terminal, …
# Biological target: the molecule itself
# Assay: cross-linking; purified UppP, room temperature 30 min, 50-fold molar excess DSS or EGS, quenched with 50 mM Tris, 12% SDS-PAGE
protein,measurement,value
B1,stoichiometry N,2
